Experimental findings from the supplement of paper PMC12042874 are described below.

± gives the uncertainty stated by the source.

This data set can be described thus: amyloid nucleation score (Sup35N fusion, yeast selection) (log enrichment); library NNK1; higher = more nucleation; inactive = no reads after selection. In short, it runs like this:
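On medium lacking adenine and uracil, psi-negative yeast expressing peptides of 20 random codons fused to Sup35N were grown 7 days at 30°C after a 24-hour induction with 100 μM copper sulfate. Illumina sequencing of input and output plasmid inserts gave the reads, and sequences under 100 input reads were excluded. The nucleation score is the DiMSum log enrichment of output over input reads, centred on the mode score of non-aggregating sequences.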
VVLSIYTNITSCCDLLTSRR: the amyloid nucleation score was found to be 6.787 ± 0.047. The result for TKALLQEVPIT reads 0.345 ± 1.2; that for YIWQGTRFQRGNRIYIGSQG, 0.271 ± 0.54; that for FSLDSRITANLTKWEEMLVQ, -0.779 ± 0.41.

The substance VNYTTSQSRRDFPSNRSQSG gave an amyloid nucleation score of 0.715 ± 0.83.

Regarding KMMPWVLLGRKLRLWRLCTK, the amyloid nucleation score was -0.463 ± 0.56.

The substance QQYSVDSRCTTVRYGLYMDM came in with an amyloid nucleation score of 0.662 ± 1.1. To NALYSWAPLDCIMPRIVS belongs 0.299 ± 0.47; to AIMLGVGFKDGSIVYKLG, -0.354 ± 0.25. The result for FPWVCIVVCERTS reads 3.41 ± 0.17. To FTLHVSFRGSDDIKSVFYCS belongs 3.29 ± 0.11; to ISVHIFKGLYRSKSVAWRNV, -0.069 ± 1.1.

The substance AMGTLVIKGRYFYIFSASFG showed an amyloid nucleation score of -1.52 ± 2.4. In the case of CVTLTCLLSSIV, the amyloid nucleation score turned out to be 1.84 ± 0.12. The result for ARIMFVPWSLNDLWLGRFSM reads -0.263 ± 0.45; that for RFSDT, -0.568 ± 0.3. To FNSTTTESLHAVAEGTMNPL belongs 0.671 ± 0.54; to AFYIRIGVHFPQ, -0.525 ± 1.1; to NYGFAIPFA, 0.323 ± 0.31.

SMESLTVEAMNSVEAFPVTY gave an amyloid nucleation score of -1.22 ± 0.73.

In turn, DCDYGCLKLSEEFGSVSSFR registered an amyloid nucleation score of 0.165 ± 1.4. To RLFDVMTITYTRSLSSPSCD belongs 0.405 ± 1.2. To MLKQMSSLGREEIYVF belongs -0.314 ± 0.99; to SNFCDTCLKLRGNTCMASFT, -0.259 ± 0.42; to PTPILFCYQRCLGVYYMDET, 0.198 ± 0.4. To SLRFPKKGYVTRCTAWYLGV belongs 3.45 ± 0.083; to ENDVLELFRFSLCLCHRPGG, “inactive”.

With FLNCVSLVNLLRLFRVCLMP, the amyloid nucleation score was -0.765 ± 1.5.

CEVRFLCWYGFIWRYN yielded an amyloid nucleation score of -0.336 ± 0.74.

For the substance PALKYFEAVVH, the amyloid nucleation score entry was “inactive”. The result for LRVHDHDRMSDKMRYCNPFC reads 1.76 ± 0.42; that for GFGQAGGPSGESY, 0.722 ± 0.75. The result for GLGCSSLCQLMN reads 0.983 ± 0.56. The result for TSGHNVIPRGTVSSVVRILY reads -0.498 ± 0.36; that for RGHLLGFMRRLCFIGLR, -0.372 ± 0.64. RPDALGN registered an amyloid nucleation score of -0.97 ± 0.64.

MVSLDWTSQLGR showed an amyloid nucleation score of 2.18 ± 0.54. To RRKLACCCRFSVLSSGCVQN belongs -0.668 ± 1.7; to PINYVDRIRYVCMWCLFVAF, “inactive”. MDACCMFNVWLVSECGFRVH: the amyloid nucleation score worked out at 5.81 ± 0.064. The result for TADFLERRDMKYLHM reads -0.361 ± 1.7. The result for HSIDLGTFDGFFKIRLSSTT reads 0.598 ± 0.78; that for MVGNIYSSPFYPRYSLTNGT, -0.161 ± 0.83; that for SAIYRRWAHRAQSAWQVESR, 1.94 ± 0.7.

In the case of ALWCMRSTSRLGKCFGLVIY, the amyloid nucleation score was -0.945 ± 0.77. To LSFSMGYNYELATTKWSVVF belongs 1.3 ± 0.41; to ICSVRSTQVGEKTSLPWLCR, 0.371 ± 0.41. To PARSWNLLLSSYYAVFGCFY belongs -0.327 ± 0.74; to EDEYQDPTTGVIHVVMGTCV, 0.044 ± 1.1; to TQVSVFQ, -1.3 ± 0.83.

DVDYLYPLYLVAGFMTNVRK returned an amyloid nucleation score of 0.535 ± 0.25. To MWVNLVWTAFLYKSILCRVF belongs 0.38 ± 1.2; to NVFILMCITKRFCNWLNISS, -0.773 ± 1.5; to VFKCVNFS, “inactive”. With LYVTVGWSLWYGSFAVMVVC, the amyloid nucleation score came out at 0.026 ± 0.41. The result for IISISINGSVRWSCTRSGAD reads 0.499 ± 0.53. To RKHVVPGKIF belongs 0.006 ± 0.51; to DELGAMMRIFSFSCNP, -0.147 ± 1.1; to NDTNI, 0.175 ± 1.1.

In the case of LGLPSVFRRHFAFMVRMLWY, the amyloid nucleation score turned out to be 0.021 ± 0.75. To KYYYWRRVPVCQKGDLF belongs 0.095 ± 0.31; to EHLISYATYEVLVSTWNSFE, “inactive”; to WYYITS, 0.295 ± 0.67. To YLIEFCPL belongs -0.225 ± 0.34. The result for FRWNLQAWQEVSGAGQRAVV reads -0.014 ± 0.76; that for VNCFSTLSMLWMSVQTEPRV, 1.04 ± 0.28.

For LLLLCMDARRKRYSSMSACS, the amyloid nucleation score was 1.02 ± 0.53.

As to LGRFYTTCT, the amyloid nucleation score is -0.981 ± 1.1. To LATAEASRNYVGYFGWSFMN belongs 0.098 ± 1.1; to GFYVAETRKVRLCMARWYCG, 0.368 ± 0.47; to VSWECSIVNAYMQPATCDII, 4.88 ± 0.1. Take KELKYCVFALVVAD: the amyloid nucleation score stood at 0.012 ± 0.63. To NNMLAWWVSLTSSQT belongs 0.512 ± 0.39.

The substance QGLSGDDCLHGNFKFHMSET registered an amyloid nucleation score of -0.243 ± 0.32.

QAKPLMLNV registered an amyloid nucleation score of -0.96 ± 1.9.

As for TGCCFYVSDHF, the amyloid nucleation score was 7.88 ± 0.071. The result for TMGSLMFWF reads -0.356 ± 0.95; that for VFNTSRLFRSLYPK, 0.573 ± 0.82. The result for NCLDGGMFRYIKVYRSRYSS reads 0.209 ± 0.2.

MAKTFRLGGLDCHLNYVVWC yielded an amyloid nucleation score of 0.113 ± 0.61. To NCVTL belongs “inactive”; to VTNTSLFSIAKSLGHHHEGR, 0.272 ± 0.4. The result for LFFCGLGERG reads “inactive”.

Substance GYFVSMSTDYSLSWRYICSA returned an amyloid nucleation score of -1.16 ± 0.67.

For TVSKNMYR, the amyloid nucleation score is -0.259 ± 0.5. To LPNSMLSSGLGWSSINFF belongs 1.16 ± 0.7; to MFTIF, 0.045 ± 0.3. The result for TRSMALL reads -0.098 ± 0.71; that for YNTDWPLHLTADVGVFY, -0.088 ± 1.1.

VNWIVVVFTNMLFLTKGRNA showed an amyloid nucleation score of 0.308 ± 0.27. To NLEAIRQMQEKIMRRTWLLY belongs 3.03 ± 0.13. The result for DQSILRLYAWALRPGELELR reads 3.15 ± 0.14; that for EERRMSWWFERGCKLAVELS, -0.614 ± 0.8; that for FFQRVCK, 1.65 ± 0.31. To GSGYFDGVIFIYLT belongs -1.11 ± 1.1.

IACPYRHNGCNTRLRNINAV returned an amyloid nucleation score of -0.316 ± 0.42.

With YTIEYTSITVIVCGILYNT, the amyloid nucleation score turned out to be 6.932 ± 0.05. To TLSLTNYELSKQSWMVLC belongs -0.236 ± 0.64. The result for FNGRVDSARCPGVARARHLL reads -0.846 ± 2.4; that for VSFRTLYGRI, -0.187 ± 0.27; that for DHGGVVPSNPGYNMARSLRF, 0.465 ± 0.46. In the case of YVYNMFRL, the amyloid nucleation score came to 2.88 ± 0.14. With RKDLEIWYRMRLGEMPLRWM, the amyloid nucleation score was -0.165 ± 0.33. To NSCICLTRD belongs -1.27 ± 1.7; to WEFRRWGLRLHLSFLASLGA, -0.015 ± 0.25; to FKGHRHY, 0.318 ± 0.55.

In the case of RCMDHCSLDIQVRVLCKVSV, the amyloid nucleation score was -0.709 ± 0.66. LSIMVCVICSYMVKMVVTGI: the amyloid nucleation score entry was “inactive”.

YYSVGYGTYLTEFLCGNLRG had an amyloid nucleation score of 0.989 ± 0.35. To YYLSVNR belongs -0.116 ± 0.67; to LRTMIVLGFSTWDTCIGSES, -0.537 ± 0.28; to VGRLGKFRGFSIGNYECSI, 0.726 ± 0.55. The result for GPSRNGWFNATLGHTLLSNT reads 0.638 ± 0.42. The result for FQPIGSMWNYRSMYVYSTLF reads -0.062 ± 0.57; that for IEIIIASSGHHHYIKRDNVY, 0.652 ± 0.58.

Regarding TPSLLVAVRILAAVMPSWET, the amyloid nucleation score was -0.746 ± 0.43. The result for FWVKVLY reads -0.654 ± 0.37; that for NVKLFFNIFVGKSKIHTTPW, 6.308 ± 0.058. The result for YAERLIRKWS reads 0.06 ± 0.28; that for HPIEWSKVSDNIRRQSGCCG, 0.754 ± 0.33; that for KLARTMGYTGTSMVACFCVV, “inactive”. ERVAQKILHLKSMPITARPV showed an amyloid nucleation score of 0.002 ± 1.1. NSVIFELISSCVNDSNVAGD displayed an amyloid nucleation score of 1.45 ± 0.63. The result for NGKWYLLVRGFLAWNKQRCP reads -1.03 ± 2.7; that for GLKNFWM, -1.55 ± 1.9; that for MMLSGFDIIYGIALCPLHVQ, -0.14 ± 0.3. To LIYRVPIDLITNSNSALRCA belongs -0.018 ± 0.48.

SSEDYALVLRSSGALVCSCL yielded an amyloid nucleation score of 0.418 ± 1. To QFCMKSTPMSHFR belongs -0.772 ± 0.61. Substance LIMILGIRDHLTNCGGKVLQ registered an amyloid nucleation score of 2.03 ± 0.3. Regarding AYCTLNR, the amyloid nucleation score stood at 0.603 ± 0.36. The result for ALCVDGDAVVTWDTILNEHF reads -0.361 ± 0.97; that for SHTCYRIVTAPDTLLVSLGV, 0.438 ± 0.36. The result for MACKIIYVTVEGMLRSRS reads 1.31 ± 0.56; that for SYPTALLKSVLFPLVVI, -0.463 ± 0.26; that for RLDRWKHEMTAVSRCHKARM, 1.24 ± 0.74. The result for SYLKS reads -0.4 ± 0.63; that for FVDSFVNIWLIKTFSRIVVD, 0.161 ± 0.3. Substance CVHLSKRCKLPVKIISLCLN displayed an amyloid nucleation score of 0.767 ± 1. The result for RLYFRELSWSGLCMFELVRI reads -0.117 ± 0.4.
